Laboratory results: patent US20240401239A1 (US Dept. of Health and Human Services, published 2024)

Columns and labels:
[1] = biological target: spike protein of authentic SARS-COV-2 virus (USA_WA1/2020) (SARS-COV-2, UniProt P0DTC2 14-1273); experiment: cell-based or functional assay
[2] = biological target: SARS-COV-2 S protein (Wuhan-Hu-1, WT) on MLV pseudotyped particles (SARS-COV-2, UniProt P0DTC2 14-1254); experiment: cell-based or functional assay
[3] = biological target: T1, mitochondrial elongation factor 1 (MIEF1) (human, UniProt Q9NQG6 1-463); experiment: flow cytometry validation after the membrane proteome array screen
T1 construct: whole, on cells
T1 sequence (Q9NQG6 whole entry): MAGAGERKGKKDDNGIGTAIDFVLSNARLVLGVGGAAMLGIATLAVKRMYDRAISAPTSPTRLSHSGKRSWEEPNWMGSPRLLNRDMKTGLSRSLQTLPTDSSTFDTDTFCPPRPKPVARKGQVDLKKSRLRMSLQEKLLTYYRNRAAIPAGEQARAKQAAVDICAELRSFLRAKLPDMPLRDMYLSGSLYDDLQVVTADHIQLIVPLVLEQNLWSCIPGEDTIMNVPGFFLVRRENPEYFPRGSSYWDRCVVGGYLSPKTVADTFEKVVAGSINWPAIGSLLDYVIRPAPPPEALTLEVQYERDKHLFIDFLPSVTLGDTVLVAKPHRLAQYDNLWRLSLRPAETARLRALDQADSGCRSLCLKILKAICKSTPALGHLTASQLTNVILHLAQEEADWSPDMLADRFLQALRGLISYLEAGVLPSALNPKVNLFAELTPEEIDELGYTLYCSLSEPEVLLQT

[4] = biological target: SARS-COV-2 spike protein receptor binding domain fused to an Fc tag (RBD-Fc, residues 319-541) (Sino … (SARS-COV-2, UniProt P0DTC2 319-541))

| Binder | IC50, SARS-COV-2 live virus (CPE) assay on Vero E6 cells [1] | IC50, pseudotyped particle entry assay, wildtype particles [2] | IC50, SARS-COV-2 live virus assay, lyophilized and reconstituted RBD-1-2G [1] | IC50, SARS-COV-2 live virus assay, untreated RBD-1-2G [1] | IC50, SARS-COV-2 pseudotyped particle entry assay (HEK293-ACE2 cells) [2] | binding result [3] | IC50 [4] |
| --- | --- | --- | --- | --- | --- | --- | --- |
| RBD-1-2G-Fc (Fc fusion, also called bivalent format of RBD-1-2G) EVQLVESGGGLVQPGGSLRLSCAASGFSSIVYMGWFRQAPGKGRELVAAIDASGSTTNYPDSVEGRFTISRDNAKRMVYLQMNSLRAEDTAVYYCAIAYFTSPEYVVSQGWGQGTQVTVSS | 255 nM | 10.2 nM | – | – | – | – | – |
| single-domain antibody RBD-1-2G (VHH, also called RBD-1-2G Nb; RBD-1-2G nanobody) VHH: EVQLVESGGGLVQPGGSLRLSCAASGFSSIVYMGWFRQAPGKGRELVAAIDASGSTTNYPDSVEGRFTISRDNAKRMVYLQMNSLRAEDTAVYYCAIAYFTSPEYVVSQGWGQGTQVTVSS | 1210 nM | 512 nM | 5900 nM | 14800 nM | 490 nM | no binding | 28.3 nM |
| RBD-1-2G-Tri (bispecific antibody) EVQLVESGGGLVQPGGSLRLSCAASGFSSIVYMGWFRQAPGKGRELVAAIDASGSTTNYPDSVEGRFTISRDNAKRMVYLQMNSLRAEDTAVYYCAIAYFTSPEYVVSQGWGQGTQVTVSSGGGGSGGGGSGGGGSEVQLVESGGGLVQPGGSLRLSCAASGFSSIVYMGWFRQAPGKGRELVAAIDASGSTTNYPDSVEGRFTISRDNAKRMVYLQMNSLRAEDTAVYYCAIAYFTSPEYVVSQGWGQGTQVTVSSGGGGSGGGGSGGGGSEVQLVESGGGLVQPGGSLRLSCAASGFSSIVYMGWFRQAPGKGRELVAAIDASGSTTNYPDSVEGRFTISRDNAKRMVYLQMNSLRAEDTAVYYCAIAYFTSPEYVVSQGWGQGTQVTVSSHHHHHH | 182 nM | 4.5 nM | – | – | – | – | – |
